Reference: article PMC10670289, “Characterization and Molecular Dynamics Simulation of a Lipase Capable of Improving the Functional Characteristics of an Egg-Yolk-Contaminated Liquid Egg White” (Foods, 2023)

Legend:
Assay in all cases: purified protein
Type in all cases: biochemical, Bacillus subtilis
Conditions in all cases: 30 °C, pH 9.0
purified protein [1] = substrate: CCCCCCCCCCCCCC(=O)Oc1ccc([N+](=O)[O-])cc1
purified protein [2] = substrate: CCCCCCCCCCCCCCCCCC(=O)Oc1ccc([N+](=O)[O-])cc1
purified protein [3] = substrate: CCCCCCCCCCCCCCCC(=O)Oc1ccc([N+](=O)[O-])cc1
purified protein [4] = substrate: CCCCCCCC(=O)Oc1ccc([N+](=O)[O-])cc1
purified protein [5] = substrate: CCCCCCCCCC(=O)Oc1ccc([N+](=O)[O-])cc1
purified protein [6] = substrate: CCCCCCCCCCCC(=O)Oc1ccc([N+](=O)[O-])cc1
purified protein [7] = substrate: CCCCCC(=O)Oc1ccc([N+](=O)[O-])cc1

B1: Lip-IM (Bacillus subtilis subsp. subtilis str. 168) (protein)
chain: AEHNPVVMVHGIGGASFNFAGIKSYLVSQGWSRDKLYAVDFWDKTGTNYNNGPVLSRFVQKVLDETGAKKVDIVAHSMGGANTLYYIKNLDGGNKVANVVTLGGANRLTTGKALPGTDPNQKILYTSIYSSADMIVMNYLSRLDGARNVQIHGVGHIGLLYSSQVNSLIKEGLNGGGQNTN
notes: 22 kDa by SDS-PAGE
Q: Which Km (purified protein [1]) does the source give for B1 here?
A: 5.12 ± 0.09 mM

Q: And the Vmax (purified protein [1])?
A: 214 µM/min

Q: And the Km (purified protein [2])?
A: 6.26 ± 0.07 mM

Q: What about the Vmax (purified protein [2]) of the same protein?
A: 292 µM/min

Q: What about the Km (purified protein [3]) of the same protein?
A: 9.26 ± 0.09 mM

Q: And the Vmax (purified protein [3])?
A: 150 µM/min

Q: And the Km (purified protein [4])?
A: 4.21 ± 0.09 mM

Q: What about the Vmax (purified protein [4]) of the same protein?
A: 236 µM/min

Q: What about the Km (purified protein [5]) of the same protein?
A: 5.23 ± 0.04 mM

Q: And the Vmax (purified protein [5])?
A: 184 µM/min

Q: And the Km (purified protein [6])?
A: 5.96 ± 0.08 mM

Q: And the Vmax (purified protein [6])?
A: 204 µM/min

Q: What about the Km (purified protein [7]) of the same protein?
A: 3.92 ± 0.06 mM

Q: And the Vmax (purified protein [7])?
A: 233 µM/min
